Reference: US20250269058A1, “GENE THERAPY FOR TREATING NEURODEGENERATIVE DISEASES” (ABRAIN, priority 2021, published 2025)

Experiments:
[1] = ThT assay of autoaggregation of Aβ42 WT or variant peptides; format: physicochemical; conditions: 10 μM peptide in PBS, 50 μM ThT, 37° C.
Procedure: HFIP was evaporated overnight in a fume hood and then transferred to SpeedVac for 1 hour to remove any remaining traces of HFIP, Tubes containing the peptide film were kept over desiccant at −20° C. until used. Immediately prior to experimental use, lyophilized peptides were dissolved in 0.1% NH4OH to a final concentration of 100 μM and sonicated for 10 minutes in a bath sonicator.
ThT fluorescence was measured using a Biotek Synergy H1 reader at an excitation wavelength of 440 nm and emission wavelength of 485 nm. Reactions were incubated at 37° C. and then shaken for 5 seconds every 10 minutes prior to reading the fluorescence.

[2] = target: T1, human Tau 40 WT (Homo sapiens, UniProt P10636); experiment: ThT assay, inhibition of human Tau 40 WT autoaggregation by Tau inhibitor; format: biochemical; conditions: 15 μM Tau protein and 30 μM inhibitor (1:2)
T1 construct: His tag (inferred from Ni-NTA purification and pQE80 vector); made in house; host or cells: E. coli BL21-DE3
Procedure: (§1) All inhibitor peptides were purchased from Biomatik. Dissolution was performed at a working concentration of 1.2 mM in deionized water, with a minimum purity of 95% or higher. Human Tau 40 WT was expressed by the pQE80 vector in BL21-DE3 E. coli cells grown to OD600=0.8 in LB medium. Cells were induced with 1 mM IPTG for 3 hours at 37° C. and further incubated for 4 hours, and then cultured E. coli cells were harvested by centrifugation at 5,000 rpm for 20 minutes. The obtained E. coli was resuspended in a dissolution buffer (50 mM NaH2PO4, NaCl 250 mM, 10 mM imidazole pH 8.0) and then dissolved by sonication. Cell lysates were purified by centrifugation at 15,000 rpm for 15 minutes, and 1 ml of 50% Ni-NTA slurry was added to 4 ml of the supernatant and shaken at 4° C. for 60 minutes (200 rpm on a rotator) to mix gently. […]
(§2) Autoaggregation of human Tau 40 WT or Tau inhibitor was tested using 15 μM of human Tau 40 WT protein or 30 μM of inhibitor (SEQ ID NOs: 22 or 32), 8 μM heparin, and 50 μM ThT. ThT fluorescence was measured using a Biotek Synergy H1 reader at an excitation wavelength of 440 nm and emission wavelength of 485 nm. The reactions were incubated at 37° C., and measured every 15 minutes for 70 hours with orbital vibration of 425 cpm continuously. […]

[3] = ThT assay of autoaggregation of human Tau 40 WT or Tau inhibitor; format: physicochemical
Procedure: as §1, §2

T1 sequence (P10636 1-441 isoform P10636-8): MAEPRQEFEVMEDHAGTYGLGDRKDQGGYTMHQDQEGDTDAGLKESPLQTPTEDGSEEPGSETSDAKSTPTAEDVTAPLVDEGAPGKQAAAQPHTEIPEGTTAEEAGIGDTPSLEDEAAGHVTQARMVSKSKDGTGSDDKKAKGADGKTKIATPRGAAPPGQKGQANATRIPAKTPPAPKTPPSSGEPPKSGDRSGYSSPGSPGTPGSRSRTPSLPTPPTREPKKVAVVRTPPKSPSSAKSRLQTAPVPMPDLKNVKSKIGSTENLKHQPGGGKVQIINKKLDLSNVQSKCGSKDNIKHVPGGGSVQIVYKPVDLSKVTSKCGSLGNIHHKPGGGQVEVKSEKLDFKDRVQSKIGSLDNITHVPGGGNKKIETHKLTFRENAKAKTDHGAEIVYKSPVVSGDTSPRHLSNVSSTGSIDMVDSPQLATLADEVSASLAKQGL

## Aβ42 WT: wild-type Aβ42 peptide, synthetic, purchased from Biomatik
[1]
  autoaggregation in ThT assay: generated aggregation

## MDVQMINKKLK (Tau inhibitor) [SEQ ID NO: 22]
[2]
  inhibition of Tau WT aggregation (competition assay): completely attenuated the aggregation of Tau WT

## TVIVITLVMLKDVQMINKKLK (Tau inhibitor) [SEQ ID NO: 32]
[2]
  inhibition of Tau WT aggregation (competition assay): completely attenuated the aggregation of Tau WT

## Tau WT: Human Tau 40 WT protein expressed by the pQE80 vector in E. coli
[3]; 1 nM of seed added to Tau WT
  time to peak of ThT binding: ≤ 20 h
[3]; 15 μM human Tau 40 WT, 8 μM heparin, 50 μM ThT
  time to peak of ThT binding: ≤ 70 h
